Measurements from paper PMC4358367, “Structural basis of diverse membrane target recognitions by ankyrins” (eLife, 2014).

B1: AnkB_repeats (24 ANK repeats of human 220 kDa ankyrin-B, residues 28–873) [human] / Cav1.3 peptide (mouse Cav1.3 residues 2134–2166), FITC-labeled [modified: FITC label (position not stated); FITC label (position not stated)] [mouse] (parent complex)
chain 1: KSDSNASFLRAARAGNLDKVVEYLKGGIDINTCNQNGLNALHLAAKEGHVGLVQELLGRGSSVDSATKKGNTALHIASLAGQAEVVKVLVKEGANINAQSQNGFTPLYMAAQENHIDVVKYLLENGANQSTATEDGFTPLAVALQQGHNQAVAILLENDTKGKVRLPALHIAARKDDTKSAALLLQNDHNADVQSKMMVNRTTESGFTPLHIAAHYGNVNVATLLLNRGAAVDFTARNGITPLHVASKRGNTNMVKLLLDRGGQIDAKTRDGLTPLHCAARSGHDQVVELLLERGAPLLARTKNGLSPLHMAAQGDHVECVKHLLQHKAPVDDVTLDYLTALHVAAHCGHYRVTKLLLDKRANPNARALNGFTPLHIACKKNRIKVMELLVKYGASIQAITESGLTPIHVAAFMGHLNIVLLLLQNGASPDVTNIRGETALHMAARAGQVEVVRCLLRNGALVDARAREEQTPLHIASRLGKTEIVQLLLQHMAHPDAATTNGYTPLHISAREGQVDVASVLLEAGAAHSLATKKGFTPLHVAAKYGSLDVAKLLLQRRAAADSAGKNGLTPLHVAAHYDNQKVALLLLEKGASPHATAKNGYTPLHIAAKKNQMQIASTLLNYGAETNIVTKQGVTPLHLASQEGHTDMVTLLLDKGANIHMSTKSGLTSLHLAAQEDKVNVADILTKHGADQDAHTKLGYTPLIVACHYGNVKMVNFLLKQGANVNAKTKNGYTPLHQAAQQGHTHIINVLLQHGAKPNATTANGNTALAIAKRLGYISVVDTLKVVTEEVTTTTTTITEKHKLNVPETMTEVLDVSDEEGDDTMTGDGGEYLRPEDLKELGDD
chain 2: ELQDFGPGYSDEEPDPGREEEDLADEMICITTL

Variants of: B1
Experiment: fluorescence polarisation; parent: 3.3e+03 nM

Variant	Kd [µM]
chain 1 I240Q, chain 1 L273Q	8.2
chain 1 F104Q, chain 1 F137Q	3.3
chain 1 L339Q, chain 1 F372Q, chain 1 L405Q	4
